# According to the RNAGym collection of RNA variant scans (doi:10.1073/pnas.2313332121):
# B1: TPR t1 (parent)
# chain: GACCAAUCUGCCCUCAGAGCUCGAGAACAUCUUCGGAUGCAGAGGAGGCAGGCUUCGGUGGCGCGAUAGCGCCAACGUCCUCAACCUCCAAUGCAUCCCACCACAUGAUGAUGCCUGAAGAGCCUUGGUUUUUUG
# Variants of: B1
# Experiment: polymerase ribozyme fitness, log enrichment relative to wild type (log ratio); higher = more active; in vitro selection for triplet polymerase activity
# Outline: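 Streptavidin-bead capture of gel-excised extended constructs, followed by RT-PCR, closed a single triplicate in vitro selection round. That round began by annealing PCR-built, transcribed mutant libraries of each subunit of a heterodimeric triplet polymerase ribozyme with a biotinylated primer, the partner subunit and triplets, then incubating them frozen at −7 °C. After Illumina sequencing of inputs and outputs, genotypes needed ≥10 input reads and ≥1 read per output. Fitness is the base-2 logarithm of genotype enrichment over wild-type enrichment, using inverse-variance-weighted replicate averages.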
row,Variant,polymerase ribozyme fitness (log ratio)
1,GACCAAUCUGCCCUCAGAGCUCGAGAACAUCUUCGGAUGCAGAGGAGGCAAGCUUCGGUGGCGCGAUAGCGCCAACGUCCUCAACCUCCAAUGCCUCCCACCACAUGAUGAUGCCUGAAGAGCCUUGGUUUUUUG [G51A A95C],-3.42
2,GACCAAUCUGCCCUCAGAGCUCGAGAACAUCUUCGGAUGCAGAGGAGGCUGGCUUCGGUGGCGCGAUAGCGCCAACGUCCUCAACCUCCAAUGCAUCCCACCACAUGAUGAUGCCUGAAGAGCCUUGGUUAUUUG [A50U U131A],-0.622
3,GACCAAUCUGCCCUCAGAGCUCGAGAACAUCUUCGGAUGCAGAGGAGGCAAGCUUCGGUGGCGCGAUAGCGCCAACGUCCUCAACCUCCAAUGCAUCCCACCACAUGAUGAUGCCUGAAGAGCUUUGGUUUUUUG [G51A C124U],-1.14
4,GACCAAUCUGCCCUCAGAGCUCGAGAACAUCUUCGGAUGCAGAGGAGGCAAGCUUCGGUGGCGCGAUAGCGCCAACGUCCUCAGCCUCCAAUGCAUCCCACCACAUGCUGAGGCCUGAAGAGCCUUGGUUUUUUG [G51A A84G A108C U112G],-8.09
5,GACCAAUCUGCCCUCAGAGCUCGAGAACAUCUUCGGAUGCAGAGGAGGCAAGCUUCGGUGGCGCGAUAGCGCCAACGUCCUCAACCUCCAAUGCAUCCCACCACAUGAUGAUGCCUGAAUAGCCUUGGUUUUUUG [G51A G120U],-2.59
6,GACCAAUCUGCCCUCAGAGCUCGAGAACAUCUUCGGAUGCAGAGGAGGCAAGCUUCGGUGGCGCGAUGGCGCCAACGUCCUCAACCUCCAAUGCAUCCCACCACAUGAUGAUGCCUGAAGAGGCUUGGUUUUUUG [G51A A68G C123G],-4.37
7,GACCAAUCUGCCCUCAGAGCUCGAGAACAUCUUCGGAUGCAGAGGAGGCAAGCUUCGGUGGCGCGUUAGCGCCAACGUCCUCAACCUCCAAUGCAUCCCACCACAUGAUGAUGCCUGAAGAGCCUUGGUUUUUUG [G51A A66U],-5.73
8,GACCAAUCUGCCCUCAGAGCUCGAGAACAUCUUCGGAUGCAGAGGAGGCAAGCUUCGGUGGCGUGAUAGCGCCAACGUCCUCAACCUCCAAUGCAUCCCACCACGUGAUGAUGCGUGAAGAGCCUUGGUUUUUUG [G51A C64U A105G C115G],-8.49
9,GACCAAUCUGCCCUCAGAGCUCGAGAACAUCUUCGGAUGCAGAGGAGGCAAGCUUCGGUGGCGCGAUAGGGCCAACGUCCUCAACCUCCAAUGCAUCCCACCACAUGAUGAUGCCUGAAGAGCCUUGGUUUUUUG [G51A C70G],-6.9
10,GACCAAUCUGCCCUCAGAGCUCGAGAACAUCUUCGGAUGCAGAGGAGGCUGGCUUCGGACGCGCGAUAGCGCCAACGUCGUCAACCUUCAAUGCAUCCCACCACAUGAUGAUGCCUGAAGAGUCUUGGUUUUUUG [A50U U59A G60C C80G C88U C123U],-1.82
11,GACCAAUCUGCCCUCAGAGCUCGAGAACAUCUUCGGAUGCAGAGGAGGCAAGCUUCGGUGGUGCGAUAGCGCCAACGUCCUCAACCUCCAAUGCAUCCCACCACAUGAUGAUGCCUGAAGAGCUUUGGUUUUUUG [G51A C62U C124U],-1.17
12,GACCAAUCUGCCCUCAGAGCUCGAGAACAUCUUCGGAUGCAGAGGAGGCAAGCUUCGGUGGCGCGAUAGCGUCAACGUCCUUGACCUCCAAUGUAUCCCACCACAUGAUGAUGCCUGAAGAGCCUAGGUUUUUUG [G51A C72U C82U A83G C94U U126A],-2.93
13,GACCAAUCUGCCCUCAGAGCUCGAGAACAUCUUCGGAUGCAGAGGAGGCUGGCUUCGGUGGCGCGAUAGCGCCAACGUCCUCAACCUCCAAUGCAUCCCACCACAUGAUGAAGCCUGAAGAGCCUUGGUUUUUUG [A50U U112A],-0.102
14,GACCAAUCUGCCCUCAGAGCUCGAGAACAUCUUCGGAUGCAGAGGAGGCAAGCUUCCGCGGCGCGAUAGCGCCAACGUCCUCAACCUCCAAUGCAGCCCACCACAAGAUGAUGCCUGGAGAGCCUUGGUUUUUUG [G51A G57C U59C U96G U106A A118G],-5.28
15,GACCAAUCUGCCCUCAGAGCUCGAGAACAUCUUCGGAUGCAGAGGAGGCAAGCUUCGGUGGCGCGAUAGCGCCAACGUCCUCAACCUCCAAUGCAUCCCACCACAUGAUGAUGCCUCAAGAGCCUUGGUUUUUUG [G51A G117C],-5.64
16,GACCAAUCUGCCCUCAGAGCUCGAGAACAUCUUCGGAUGCAGAGGAGGCAAGCUUCGGUUGCGCGAUAGCGCCAACGUCCUCAACCUCCAAUGCAUCCCACCACAUGAUGAUGCCUGAAGAGCCUUGGUUUUUUG [G51A G60U],-1.77
17,GACCAAUCUGCCCUCAGAGCUCGAGAACAUCUUCGGAUGCAGAGGAGGCUGGCUCCGGUGGCGCGAUAGCGCCAACGUCCUCAACCUCCAAGGCAUCCCACCACAUGAUGAUGCCUGGAGAGCCUUGGUUUUUUG [A50U U55C U92G A118G],-5.06
18,GACCAAUCUGCCCUCAGAGCUCGAGAACAUCUUCGGAUGCAGAGGAGGCAAACUUCGGUGGCGCGAUAGCGCCAACGUCCUCAACCUCCAAUGCAUCCCAUCACAUGAUGAUGCCUGAAGAGCCUUGGUUUUUUG [G51A G52A C101U],-3.92
19,GACCAAUCUGCCCUCAGAGCUCGAGAACAUCUUCGGAUGCAGAGGAGGCAAGCUUCGGUGGCGCGAUAGCGCCCACGUCCUCAACCUCCAAUGCAUCCCACCACAUGAUGAUGCCUGAAGAGCCUUGGUUUUUUG [G51A A74C],-4.63
20,GACCAAUCUGCCCUCAGAGCUCGAGAACAUCUUCGGAUGCAGAGGAGGCAAGCUUCGGUGGCGCGAUCGGGCCAACGUCCUCAACCUCCAAUGCAUCCCACUACAUGAUAAUGCCUGAAGAGCCUUGGUUUUUUG [G51A A68C C70G C102U G110A],-5.98
21,GACCAAUCUGCCCUCAGAGCUCGAGAACAUCUUCGGAUGCAGAGGAGGCAAGCUUCGGUGGCGCGAUAGCGCCAACGUCCUAAACCUCCAAUGCAUCCCACCACAUGAUGAUGCCUGAAGAGCCUUGGUUUUUUG [G51A C82A],-4.73
